Experimental data as given in US20180044393A1 (INSERM INSTITUT NATIONAL DE LA SANT ET DE LA RECHERCHE M …, published 2018).
Substitutions are numbered along the chain they refer to. Positions of bridges follow the written chain, without caps; N, C: chain ends. No end group written: not given here. *: point of attachment. 125I = [125I]*

Key:
Assay in all cases: 125I-OxA binding on CHO-S cells expressing the OX1R mutant
OX1R C99A = molecular target: T1, OX1R C99A (human, UniProt O43613 1-425)
T1 construct: site-directed mutant (TM2) stably expressed in CHO-S cells; not shown: YFP from vector pEYFP-N2 fused at the C-terminus
T1 chain: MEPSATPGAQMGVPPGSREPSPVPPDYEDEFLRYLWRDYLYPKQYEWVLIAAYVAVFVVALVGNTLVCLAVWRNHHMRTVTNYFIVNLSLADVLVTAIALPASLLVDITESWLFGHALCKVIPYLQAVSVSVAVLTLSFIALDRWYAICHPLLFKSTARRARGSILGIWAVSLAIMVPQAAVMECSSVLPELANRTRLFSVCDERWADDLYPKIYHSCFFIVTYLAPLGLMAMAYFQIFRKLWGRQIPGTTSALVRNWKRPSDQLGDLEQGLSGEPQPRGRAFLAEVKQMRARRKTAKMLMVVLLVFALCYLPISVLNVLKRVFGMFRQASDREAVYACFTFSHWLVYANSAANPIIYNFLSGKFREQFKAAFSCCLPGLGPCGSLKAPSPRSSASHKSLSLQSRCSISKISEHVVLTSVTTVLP
Description: (§1) CHO—S cells expressing recombinant native or mutated OX1R were grown as previously described (El Firar et al., 2009) and maintained at 37° C. in a humidified 5% CO₂/air incubator. ¹²⁵I-orexia-A (74 TBq/mmol) was prepared as previously described (El Firar et al., 2009). […] Free peptides were removed by 2 cell washing cycles with PBS. […] Data were analyzed using the GraphPad software (http://www.graphpad.com).
(§2) All residues of OX1R fulfilling this condition were mutated to alanine by site-directed mutagenesis (Table II).

OX1R T341A = molecular target: T2, OX1R T341A (human, UniProt O43613 1-425)
T2 construct: site-directed mutant (TM7) stably expressed in CHO-S cells; not shown: YFP from vector pEYFP-N2 fused at the C-terminus
T2 chain: T1 chain with A99C, T341A
Description: as §1, §2

OX1R F220A = molecular target: T3, OX1R F220A (human, UniProt O43613 1-425)
T3 construct: site-directed mutant (TM5) stably expressed in CHO-S cells; not shown: YFP from vector pEYFP-N2 fused at the C-terminus
T3 chain: T1 chain with A99C, F220A
Description: as §1, §2

OX1R F340A = molecular target: T4, OX1R F340A (human, UniProt O43613 1-425)
T4 construct: site-directed mutant (TM7) stably expressed in CHO-S cells; not shown: YFP from vector pEYFP-N2 fused at the C-terminus
T4 chain: T1 chain with A99C, F340A
Description: as §1, §2

OX1R Y124A = molecular target: T5, OX1R Y124A (human, UniProt O43613 1-425)
T5 construct: site-directed mutant (TM3) stably expressed in CHO-S cells; not shown: YFP from vector pEYFP-N2 fused at the C-terminus
T5 chain: T1 chain with A99C, Y124A
Description: as §1, §2

binding result (OX1R C99A): binds | binding result (OX1R T341A): binds | binding result (OX1R F220A): binds | binding result (OX1R F340A): binds | binding result (OX1R Y124A): binds
Binder: QPLPDCCRQKTCSCRLY(125I)ELLHGAGNHAAGILTL (peptide, UniProt O43612 34-66, looked up, disulfide 6-12, 7-14; not fully specified (residue 1, C-terminus), mature; also called OxA) [125I-orexin-A]
